# In patent US20150274831A1 (Hoffmann-La Roche, published 2015):
# Biological target: CSF-1R on cynomolgous monocytes (native receptor of CD14-enriched peripheral blood monocytes) (cynomolgous)
# Test: cell-based or functional assay
Binder,% inhibition (of survival) = (100% - % survival) (CellTiterGlo; cynomolgous monocytes with 150 ng/ml huCSF-1; 5 µg/ml antibody),% survival (CellTiterGlo; cynomolgous monocytes with 150 ng/ml huCSF-1; 5 µg/ml antibody)
"Mab 2F11 (antibody, V domains shown) VH: QVQLKESGPGLVAPSQSLSITCTVSGFSLTTYDISWIRQSPGKGLEWLGVIWTDGGTNYNSPFMSRLSIRKDNSKSQVFLKMNRLQTDDTAIYYCVRDQRLYFDVWGAGTTVTVSS VL: NIVMTQSPKSMSMSVGERVTLNCKASEDVNTYVSWYQQQPEQSPKLLIYGASNRYTGVPDRFTGGGSTTDFTLTISSVQAEDLADYFCGQSFSYPTFGTGTKLEIK",96%,4%
"Mab 2E10 (antibody, V domains shown) VH: QVQLKESGPGLVAPSKSLSITCTVSGSSLDSFDISWIRQSPGKGLEWLGVIWTGGGTNYNSGFMSRLRITKDNSKSQVLLKMNSLQSDDTAIYYCVRDPRLYFDVWGAGTTVTVSS VL: NIVMTQSPKSMSMSVGERVTLSCKASEDVVTYVSWYQQKPDQSPKLLIYGASNRYTGVPDRFTGSGSATDFTLTISSVQAEDLADYYCGQTFSYPTFGTGTKLEIK",83%,17%
"Mab 1G10 (antibody, V domains shown) VH: RVQLKESGPGLVAPSQSLSITCTVSGFSLTSYDISWIRQSPGKGLEWLGVIWSGGGTNYNSPFMSRLRISKDDSRSQVFLKVNRLQTDDTAIYYCVRDLRLYFDVWGAGTTVTVSS VL: KIVMTQSPKSMSVSVGERVSLSCKASEDVGTYVSWYQQKPEQSPKLLIYGSSNRYTGVPDRFTGSGSATDFTLTISSVQAEDLADYSCGQSFTYPTFGTGTKLEIK",98%,2%
"Mab 2H7 (antibody, V domains shown) VH: QVQLKESGPGLVAPSKSLSITCTVSGSSLDSFDISWIRQPPGKGLEWLGVIWTGGGTNYNSGFMSRLRISKDNSKSQVFLKMSSLQSDDTAIYYCVRDPRLYFDVWGAGTTVTVSS VL: NIVMTQSPKSMSMSVGERVTLSCKASEDVVTYVSWYQQKPEQSPKLLIYGASNRYTGVPDRFTGSGSATDFTLTISSIQAEDLADYYCGQTFSYPTFGTGTKLEIK",92%,8%
